Laboratory results published in IntAct's records for PubMed 16814718.

B1: Recombination protein 107 (Saccharomyces cerevisiae), P21651 (parent)
chain: MVARGRTDEISTDVSEANSEHSLMITETSSPFRSIFSHSGKVANAGALEESDKQILEWAGKLELESMELRENSDKLIKVLNENSKTLCKSLNKFNQLLEQDAATNGNVKTLIKDLASQIENQLDKVSTAMLSKGDEKKTKSDSSYRQVLVEEISRYNSKITRHVTNKQHETEKSMRCTQEMLFNVGSQLEDVHKVLLSLSKDMHSLQTRQTALEMAFREKADHAYDRPDVSLNGTTLLHDMDEAHDKQRKKSVPPPRMMVTRSMKRRRSSSPTLSTSQNHNSEDNDDASHRLKRAARTIIPWEELRPDTLESEL
partner: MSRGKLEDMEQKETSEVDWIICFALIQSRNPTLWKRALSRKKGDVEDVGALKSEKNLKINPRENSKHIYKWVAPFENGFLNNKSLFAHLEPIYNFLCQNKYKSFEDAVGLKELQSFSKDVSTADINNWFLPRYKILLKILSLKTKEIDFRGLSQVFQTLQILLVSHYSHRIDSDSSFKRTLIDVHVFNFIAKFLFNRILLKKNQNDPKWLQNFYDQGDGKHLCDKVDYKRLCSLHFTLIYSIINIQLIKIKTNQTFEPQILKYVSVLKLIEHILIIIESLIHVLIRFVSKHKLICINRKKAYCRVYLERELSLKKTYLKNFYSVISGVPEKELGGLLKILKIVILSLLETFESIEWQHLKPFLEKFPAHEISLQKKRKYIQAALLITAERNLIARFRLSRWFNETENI
B2: Recombination protein 107 (Saccharomyces cerevisiae), P21651 (parent)
chain: B1 chain
partner: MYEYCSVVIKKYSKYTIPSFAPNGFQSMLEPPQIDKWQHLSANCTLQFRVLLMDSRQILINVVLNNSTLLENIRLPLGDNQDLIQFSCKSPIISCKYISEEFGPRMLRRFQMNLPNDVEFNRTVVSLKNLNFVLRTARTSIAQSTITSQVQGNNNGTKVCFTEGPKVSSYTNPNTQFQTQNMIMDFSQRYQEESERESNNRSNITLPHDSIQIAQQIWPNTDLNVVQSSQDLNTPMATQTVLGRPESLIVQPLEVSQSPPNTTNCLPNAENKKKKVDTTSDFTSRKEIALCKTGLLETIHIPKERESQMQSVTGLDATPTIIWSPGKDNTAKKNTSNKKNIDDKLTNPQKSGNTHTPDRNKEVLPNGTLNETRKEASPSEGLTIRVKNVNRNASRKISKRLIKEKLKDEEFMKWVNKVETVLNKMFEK
B3: Recombination protein 107 (Saccharomyces cerevisiae), P21651 (parent)
chain: B1 chain
partner: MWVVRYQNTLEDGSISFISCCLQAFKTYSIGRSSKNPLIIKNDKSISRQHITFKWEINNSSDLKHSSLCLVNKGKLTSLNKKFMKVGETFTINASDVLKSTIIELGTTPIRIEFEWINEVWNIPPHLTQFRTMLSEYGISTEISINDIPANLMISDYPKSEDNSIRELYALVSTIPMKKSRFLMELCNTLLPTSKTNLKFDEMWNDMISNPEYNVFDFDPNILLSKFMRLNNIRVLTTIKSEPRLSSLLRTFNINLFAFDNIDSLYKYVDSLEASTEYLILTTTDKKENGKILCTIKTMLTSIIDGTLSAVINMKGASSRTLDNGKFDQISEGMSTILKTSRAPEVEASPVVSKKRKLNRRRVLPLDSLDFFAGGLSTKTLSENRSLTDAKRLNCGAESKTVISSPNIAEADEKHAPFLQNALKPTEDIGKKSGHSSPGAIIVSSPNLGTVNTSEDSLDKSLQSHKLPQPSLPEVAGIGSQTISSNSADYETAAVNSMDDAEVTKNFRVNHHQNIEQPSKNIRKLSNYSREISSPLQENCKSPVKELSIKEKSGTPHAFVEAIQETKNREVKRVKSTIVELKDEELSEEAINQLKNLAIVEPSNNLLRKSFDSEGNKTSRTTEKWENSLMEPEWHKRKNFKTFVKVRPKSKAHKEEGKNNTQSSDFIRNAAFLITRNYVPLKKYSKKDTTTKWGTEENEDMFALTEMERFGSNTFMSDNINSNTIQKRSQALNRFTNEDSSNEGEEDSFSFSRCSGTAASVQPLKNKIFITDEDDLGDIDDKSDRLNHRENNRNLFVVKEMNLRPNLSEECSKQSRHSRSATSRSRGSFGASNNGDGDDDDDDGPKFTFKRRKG

Variants of: B1
Settings: with mei4_yeast MEI4, P29467

| effect of a mutation on the interaction | Variant |
| --- | --- |
| with no effect | MVARGRTDEISTDVSEANSEHSLMITETSSPFRSIFSHSGKVANAGALEESDKQILEWAGKLELESMELRENSDKLIKVLNENSKTLCKSLNKFNQLLEQDAATNGNVKTLIKDLASQIENQLDKVSTAMLSKGDEKKTKSDSSYRQVLVEEISRYNSKITRHVTNKQHETEKSMRCTQEMLFNVGSQLEDVHKVLLSLSKDMHSLQTRQTALEMAFREKADHAYDRPDVSLNGTTLLHDMDEAHDKQRKKSVPPPRMMVTRSMKRRRSSAPTLSTSQNHNSEDNDDASHRLKRAARTIIPWEELRPDTLESEL [S271A] |
| decreasing interaction strength | MVARGRTDEISTDVSEANSEHSLMITETSAPFRSIFSHSGKVANAGALEESDKQILEWAGKLELESMELRENSDKLIKVLNENSKTLCKSLNKFNQLLEQDAATNGNVKTLIKDLASQIENQLDKVSTAMLSKGDEKKTKSDSSYRQVLVEEISRYNSKITRHVTNKQHETEKSMRCTQEMLFNVGSQLEDVHKVLLSLSKDMHSLQTRQTALEMAFREKADHAYDRPDVSLNGTTLLHDMDEAHDKQRKKSVPPPRMMVTRSMKRRRSSSPTLSTSQNHNSEDNDDASHRLKRAARTIIPWEELRPDTLESEL [S30A] |
| decreasing interaction strength | MVARGRTDEISTDVSEANSEHSLMITETSAPFRSIFSHSGKVANAGALEESDKQILEWAGKLELESMELRENSDKLIKVLNENSKTLCKSLNKFNQLLEQDAATNGNVKTLIKDLASQIENQLDKVSTAMLSKGDEKKTKSDSSYRQVLVEEISRYNSKITRHVTNKQHETEKSMRCTQEMLFNVGSQLEDVHKVLLSLSKDMHSLQTRQTALEMAFREKADHAYDRPDVSLNGTTLLHDMDEAHDKQRKKSVPPPRMMVTRSMKRRRSSAPTLSTSQNHNSEDNDDASHRLKRAARTIIPWEELRPDTLESEL [S30A;S271A] |

Variants of: B2
Settings: with re114_yeast REC114, P32841

| effect of a mutation on the interaction | Variant |
| --- | --- |
| disrupting interaction strength | MVARGRTDEISTDVSEANSEHSLMITETSAPFRSIFSHSGKVANAGALEESDKQILEWAGKLELESMELRENSDKLIKVLNENSKTLCKSLNKFNQLLEQDAATNGNVKTLIKDLASQIENQLDKVSTAMLSKGDEKKTKSDSSYRQVLVEEISRYNSKITRHVTNKQHETEKSMRCTQEMLFNVGSQLEDVHKVLLSLSKDMHSLQTRQTALEMAFREKADHAYDRPDVSLNGTTLLHDMDEAHDKQRKKSVPPPRMMVTRSMKRRRSSAPTLSTSQNHNSEDNDDASHRLKRAARTIIPWEELRPDTLESEL [S30A;S271A] |
| with no effect | MVARGRTDEISTDVSEANSEHSLMITETSSPFRSIFSHSGKVANAGALEESDKQILEWAGKLELESMELRENSDKLIKVLNENSKTLCKSLNKFNQLLEQDAATNGNVKTLIKDLASQIENQLDKVSTAMLSKGDEKKTKSDSSYRQVLVEEISRYNSKITRHVTNKQHETEKSMRCTQEMLFNVGSQLEDVHKVLLSLSKDMHSLQTRQTALEMAFREKADHAYDRPDVSLNGTTLLHDMDEAHDKQRKKSVPPPRMMVTRSMKRRRSSAPTLSTSQNHNSEDNDDASHRLKRAARTIIPWEELRPDTLESEL [S271A] |
| disrupting interaction strength | MVARGRTDEISTDVSEANSEHSLMITETSAPFRSIFSHSGKVANAGALEESDKQILEWAGKLELESMELRENSDKLIKVLNENSKTLCKSLNKFNQLLEQDAATNGNVKTLIKDLASQIENQLDKVSTAMLSKGDEKKTKSDSSYRQVLVEEISRYNSKITRHVTNKQHETEKSMRCTQEMLFNVGSQLEDVHKVLLSLSKDMHSLQTRQTALEMAFREKADHAYDRPDVSLNGTTLLHDMDEAHDKQRKKSVPPPRMMVTRSMKRRRSSSPTLSTSQNHNSEDNDDASHRLKRAARTIIPWEELRPDTLESEL [S30A] |

Variants of: B3
Settings: with xrs2_yeast XRS2, P33301

| effect of a mutation on the interaction | Variant |
| --- | --- |
| decreasing interaction strength | MVARGRTDEISTDVSEANSEHSLMITETSSPFRSIFSHSGKVANAGALEESDKQILEWAGKLELESMELRENSDKLIKVLNENSKTLCKSLNKFNQLLEQDAATNGNVKTLIKDLASQIENQLDKVSTAMLSKGDEKKTKSDSSYRQVLVEEISRYNSKITRHVTNKQHETEKSMRCTQEMLFNVGSQLEDVHKVLLSLSKDMHSLQTRQTALEMAFREKADHAYDRPDVSLNGTTLLHDMDEAHDKQRKKSVPPPRMMVTRSMKRRRSSAPTLSTSQNHNSEDNDDASHRLKRAARTIIPWEELRPDTLESEL [S271A] |
| disrupting interaction strength | MVARGRTDEISTDVSEANSEHSLMITETSAPFRSIFSHSGKVANAGALEESDKQILEWAGKLELESMELRENSDKLIKVLNENSKTLCKSLNKFNQLLEQDAATNGNVKTLIKDLASQIENQLDKVSTAMLSKGDEKKTKSDSSYRQVLVEEISRYNSKITRHVTNKQHETEKSMRCTQEMLFNVGSQLEDVHKVLLSLSKDMHSLQTRQTALEMAFREKADHAYDRPDVSLNGTTLLHDMDEAHDKQRKKSVPPPRMMVTRSMKRRRSSAPTLSTSQNHNSEDNDDASHRLKRAARTIIPWEELRPDTLESEL [S30A;S271A] |
| disrupting interaction strength | MVARGRTDEISTDVSEANSEHSLMITETSAPFRSIFSHSGKVANAGALEESDKQILEWAGKLELESMELRENSDKLIKVLNENSKTLCKSLNKFNQLLEQDAATNGNVKTLIKDLASQIENQLDKVSTAMLSKGDEKKTKSDSSYRQVLVEEISRYNSKITRHVTNKQHETEKSMRCTQEMLFNVGSQLEDVHKVLLSLSKDMHSLQTRQTALEMAFREKADHAYDRPDVSLNGTTLLHDMDEAHDKQRKKSVPPPRMMVTRSMKRRRSSSPTLSTSQNHNSEDNDDASHRLKRAARTIIPWEELRPDTLESEL [S30A] |
